Columns and labels:
[1] = test system: EL-4 T cell thymic lymphoma; assay: EL-4 tumour challenge in mice fed experimental diets (tumour growth, rejection, response to paclitaxel); format: in vivo, C57BL/6 mice; details: for tumour response after paclitaxel: paclitaxel 30 mg/Kg i.p. at ~0.6 cm; for rank of efficacy in sensitising tumours to paclitaxel: diet 20 g Lf per 2.4 Kg plus paclitaxel 30 mg/Kg
[2] = test system: EL-4 target cells; assay: Anti-tumour cytolytic activity of splenocytes (CTL assay); format: cell-based, mouse; details: for increase in anti-tumour cytolytic activity of splenocytes compared to control mice: Example 1, day 77; for increase in anti-tumour cytolytic activity of splenocytes: Example 2, after paclitaxel
Experimental: Splenocytes were harvested 28 days following tumour cell injection, as specified. They were incubated at 37° C. with EL-4 target cells in graded E:T ratios in 96-well round-bottom plates. After a 4-hour incubation, 50 μl of supernatant was collected, and lysis was measured using the Cyto Tox 96 Assay Kit (Promega, Madison, Wis., USA). Background controls for non-specific target and effector cell lysis were included. After background subtraction, percentage of cell lysis was calculated using the formula: 100×(experimental-spontaneous effector-spontaneous target/maximum target-spontaneous target).

[3] = test system: IL-18; details: as reported in WO 03/099323; cited from earlier work
[4] = 20 g Lf per 2.4 Kg diet in combination with paclitaxel treatment

B1: Fe-saturated Lf: Bovine lactoferrin of ~100% Fe saturation prepared with ferric nitrilo-triacetate (protein, UniProt P24627 20-708, looked up)
Lactotransferrin: APRKNVRWCTISQPEWFKCRRWQWRMKKLGAPSITCVRRAFALECIRAIAEKKADAVTLDGGMVFEAGRDPYKLRPVAAEIYGTKESPQTHYYAVAVVKKGSNFQLDQLQGRKSCHTGLGRSAGWIIPMGILRPYLSWTESLEPLQGAVAKFFSASCVPCIDRQAYPNLCQLCKGEGENQCACSSREPYFGYSGAFKCLQDGAGDVAFVKETTVFENLPEKADRDQYELLCLNNSRAPVDAFKECHLAQVPSHAVVARSVDGKEDLIWKLLSKAQEKFGKNKSRSFQLFGSPPGQRDLLFKDSALGFLRIPSKVDSALYLGSRYLTTLKNLRETAEEVKARYTRVVWCAVGPEEQKKCQQWSQQSGQNVTCATASTTDDCIVLVLKGEADALNLDGGYIYTAGKCGLVPVLAENRKSSKHSSLDCVLRPTEGYLAVAVVKKANEGLTWNSLKDKKSCHTAVDRTAGWNIPMGLIVNQTGSCAFDEFFSQSCAPGADPKSRLCALCAGDDQGLDKCVPNSKEKYYGYTGAFRCLAEDVGDVAFVKNDTVWENTNGESTADWAKNLNREDFRLLCLDGTRKPVTEAQSCHLAVAPNHAVVSRSDRAAHVKQVLLHQQALFGKNGKNCPDKFCLFKSETKNLLFNDNTECLAKLGGRPTYEEYLGTEYVTAIANLKKCSTSPLLEACAFLTR
modifications: iron-saturated (holo)
notes: Bovine lactoferrin of ~100% Fe saturation prepared with ferric nitrilo-triacetate
tumour response after paclitaxel in mice on Lf diet ([1]; Example 1, diet 20 g Lf per 2.4 Kg plus paclitaxel 30 mg/Kg i.p. at tumours ~0.6 cm): regressed to less than half their size within two weeks of administering paclitaxel, and disappeared altogether a week later
mice that completely rejected the tumour challenge ([1]; Example 1, diet with 20 g of Lf per 2.4 Kg, ten mice): one of ten
mice that completely rejected the tumour challenge ([1]; Example 2, 1 g Fe-Lf diet): one of ten
tumour growth rate compared to control diet ([1]; Example 2, 5 and 25 g per 2.4 Kg of diet): grew significantly (p<0.05 at days 35-49) more slowly
mice that completely rejected the tumour challenge ([1]; Example 2, 5 g Fe-Lf diet): two of ten
mice that completely rejected the tumour challenge ([1]; Example 2, 25 g Fe-Lf diet): three of ten
tumour response after paclitaxel ([1]; Example 2, 100 g per 2.4 Kg of diet): regressed over two weeks, but then re-grew
tumour response after paclitaxel ([1]; Example 2, all but the 100 g Fe-Lf diet (1, 5, 25 g per 2.4 Kg)): rapidly regressed and completely disappeared over the following three to four weeks
tumour growth rate compared to control diet ([1]; Example 2, lowest and highest doses (1 and 100 g per 2.4 Kg of diet)): did not differ greatly from that of mice fed the control diet
increase in anti-tumour cytolytic activity of splenocytes compared to control mice [2, 4]: 6.5 fold
increase in anti-tumour cytolytic activity of splenocytes compared to control mice ([2]; the one mouse which completely resisted the tumour challenge): 6 fold
increase in anti-tumour cytolytic activity of splenocytes ([2]; 5 g diet): 6.7 fold
increase in anti-tumour cytolytic activity of splenocytes ([2]; 25 g diet): 7 fold
increase in anti-tumour cytolytic activity of splenocytes ([2]; 100 g diet): 1.5 fold
increase in anti-tumour cytolytic activity of splenocytes, agent by itself ([2]; Example 4, high dose vitamin D (45.2 mg/Kg) by itself or Fe-saturated Lf): 1.9 fold

B2: 50% Fe-saturated Lf: Bovine lactoferrin supplemented with Fe to ~50% saturation (protein, UniProt P24627 20-708, looked up)
Lactotransferrin: APRKNVRWCTISQPEWFKCRRWQWRMKKLGAPSITCVRRAFALECIRAIAEKKADAVTLDGGMVFEAGRDPYKLRPVAAEIYGTKESPQTHYYAVAVVKKGSNFQLDQLQGRKSCHTGLGRSAGWIIPMGILRPYLSWTESLEPLQGAVAKFFSASCVPCIDRQAYPNLCQLCKGEGENQCACSSREPYFGYSGAFKCLQDGAGDVAFVKETTVFENLPEKADRDQYELLCLNNSRAPVDAFKECHLAQVPSHAVVARSVDGKEDLIWKLLSKAQEKFGKNKSRSFQLFGSPPGQRDLLFKDSALGFLRIPSKVDSALYLGSRYLTTLKNLRETAEEVKARYTRVVWCAVGPEEQKKCQQWSQQSGQNVTCATASTTDDCIVLVLKGEADALNLDGGYIYTAGKCGLVPVLAENRKSSKHSSLDCVLRPTEGYLAVAVVKKANEGLTWNSLKDKKSCHTAVDRTAGWNIPMGLIVNQTGSCAFDEFFSQSCAPGADPKSRLCALCAGDDQGLDKCVPNSKEKYYGYTGAFRCLAEDVGDVAFVKNDTVWENTNGESTADWAKNLNREDFRLLCLDGTRKPVTEAQSCHLAVAPNHAVVSRSDRAAHVKQVLLHQQALFGKNGKNCPDKFCLFKSETKNLLFNDNTECLAKLGGRPTYEEYLGTEYVTAIANLKKCSTSPLLEACAFLTR
modifications: ~50% iron-saturated
rank of efficacy in sensitising tumours to paclitaxel ([1]; Example 1): 50% Fe-saturated Lf>native Lf>apoLf
increase in anti-tumour cytolytic activity of splenocytes compared to control mice [2, 4]: 1.5 fold

B3: bovine lactoferrin: Single-chain iron-binding glycoprotein of 78 kDa present in bovine milk (protein, UniProt P24627 20-708, looked up)
Lactotransferrin: APRKNVRWCTISQPEWFKCRRWQWRMKKLGAPSITCVRRAFALECIRAIAEKKADAVTLDGGMVFEAGRDPYKLRPVAAEIYGTKESPQTHYYAVAVVKKGSNFQLDQLQGRKSCHTGLGRSAGWIIPMGILRPYLSWTESLEPLQGAVAKFFSASCVPCIDRQAYPNLCQLCKGEGENQCACSSREPYFGYSGAFKCLQDGAGDVAFVKETTVFENLPEKADRDQYELLCLNNSRAPVDAFKECHLAQVPSHAVVARSVDGKEDLIWKLLSKAQEKFGKNKSRSFQLFGSPPGQRDLLFKDSALGFLRIPSKVDSALYLGSRYLTTLKNLRETAEEVKARYTRVVWCAVGPEEQKKCQQWSQQSGQNVTCATASTTDDCIVLVLKGEADALNLDGGYIYTAGKCGLVPVLAENRKSSKHSSLDCVLRPTEGYLAVAVVKKANEGLTWNSLKDKKSCHTAVDRTAGWNIPMGLIVNQTGSCAFDEFFSQSCAPGADPKSRLCALCAGDDQGLDKCVPNSKEKYYGYTGAFRCLAEDVGDVAFVKNDTVWENTNGESTADWAKNLNREDFRLLCLDGTRKPVTEAQSCHLAVAPNHAVVSRSDRAAHVKQVLLHQQALFGKNGKNCPDKFCLFKSETKNLLFNDNTECLAKLGGRPTYEEYLGTEYVTAIANLKKCSTSPLLEACAFLTR
intestinal IL-18 levels compared to recombinant human lactoferrin [3]: lesser increase
serum levels of IL-18 [3]: did not increase

B4: apoLf: Bovine lactoferrin with Fe removed by citric acid chelation (protein, UniProt P24627 20-708, looked up)
Lactotransferrin: APRKNVRWCTISQPEWFKCRRWQWRMKKLGAPSITCVRRAFALECIRAIAEKKADAVTLDGGMVFEAGRDPYKLRPVAAEIYGTKESPQTHYYAVAVVKKGSNFQLDQLQGRKSCHTGLGRSAGWIIPMGILRPYLSWTESLEPLQGAVAKFFSASCVPCIDRQAYPNLCQLCKGEGENQCACSSREPYFGYSGAFKCLQDGAGDVAFVKETTVFENLPEKADRDQYELLCLNNSRAPVDAFKECHLAQVPSHAVVARSVDGKEDLIWKLLSKAQEKFGKNKSRSFQLFGSPPGQRDLLFKDSALGFLRIPSKVDSALYLGSRYLTTLKNLRETAEEVKARYTRVVWCAVGPEEQKKCQQWSQQSGQNVTCATASTTDDCIVLVLKGEADALNLDGGYIYTAGKCGLVPVLAENRKSSKHSSLDCVLRPTEGYLAVAVVKKANEGLTWNSLKDKKSCHTAVDRTAGWNIPMGLIVNQTGSCAFDEFFSQSCAPGADPKSRLCALCAGDDQGLDKCVPNSKEKYYGYTGAFRCLAEDVGDVAFVKNDTVWENTNGESTADWAKNLNREDFRLLCLDGTRKPVTEAQSCHLAVAPNHAVVSRSDRAAHVKQVLLHQQALFGKNGKNCPDKFCLFKSETKNLLFNDNTECLAKLGGRPTYEEYLGTEYVTAIANLKKCSTSPLLEACAFLTR
modifications: iron-free (apo)
notes: Bovine lactoferrin with Fe removed by citric acid chelation
rank of efficacy in sensitising tumours to paclitaxel ([1]; Example 1): 50% Fe-saturated Lf>native Lf>apoLf
increase in anti-tumour cytolytic activity of splenocytes compared to control mice [2, 4]: 2.4 fold

B5: native Lf: Bovine lactoferrin of greater than 90% purity from Fonterra, native Fe saturation (protein, UniProt P24627 20-708, looked up)
Lactotransferrin: APRKNVRWCTISQPEWFKCRRWQWRMKKLGAPSITCVRRAFALECIRAIAEKKADAVTLDGGMVFEAGRDPYKLRPVAAEIYGTKESPQTHYYAVAVVKKGSNFQLDQLQGRKSCHTGLGRSAGWIIPMGILRPYLSWTESLEPLQGAVAKFFSASCVPCIDRQAYPNLCQLCKGEGENQCACSSREPYFGYSGAFKCLQDGAGDVAFVKETTVFENLPEKADRDQYELLCLNNSRAPVDAFKECHLAQVPSHAVVARSVDGKEDLIWKLLSKAQEKFGKNKSRSFQLFGSPPGQRDLLFKDSALGFLRIPSKVDSALYLGSRYLTTLKNLRETAEEVKARYTRVVWCAVGPEEQKKCQQWSQQSGQNVTCATASTTDDCIVLVLKGEADALNLDGGYIYTAGKCGLVPVLAENRKSSKHSSLDCVLRPTEGYLAVAVVKKANEGLTWNSLKDKKSCHTAVDRTAGWNIPMGLIVNQTGSCAFDEFFSQSCAPGADPKSRLCALCAGDDQGLDKCVPNSKEKYYGYTGAFRCLAEDVGDVAFVKNDTVWENTNGESTADWAKNLNREDFRLLCLDGTRKPVTEAQSCHLAVAPNHAVVSRSDRAAHVKQVLLHQQALFGKNGKNCPDKFCLFKSETKNLLFNDNTECLAKLGGRPTYEEYLGTEYVTAIANLKKCSTSPLLEACAFLTR
rank of efficacy in sensitising tumours to paclitaxel ([1]; Example 1): 50% Fe-saturated Lf>native Lf>apoLf
increase in anti-tumour cytolytic activity of splenocytes compared to control mice [2, 4]: 3.4 fold

— patent US20100092497A1, “METHODS OF IMMUNE OR HAEMATOLOGICAL ENHANCEMENT, INHIBITING TUMOUR FORMATION OR GROWTH, AND TREATING OR PREVENTING CANCER” (priority 2006, published 2010)
